Assay results: patent US8273705B2, “Conversion of apoptotic proteins” (The Burnham Institute, priority 2002, dated 2012)
“Also recorded” adds a separate entry of the source.

B1: TR3/ΔDBD: TR3 mutant with the DNA binding domain removed; used as GFP fusion (protein)
chain: MPCIQAQYGTPAPSPGPRDHLASDPLTPEFIKPTMDLASPEAAPAAPTALPSFSTFMDGYTGEFDTFLYQLPGTVQPCSSASSSASSTSSSSATSPASASFKFEDFQVYGCYPGPLSGPVDEALSSSGSDYYGSPCSAPSPSTPSFQPPQLSPWDGSFGHFSPSQTYLVLHRLQCARGFGDWIDSILAFSRSLHSLLVDVPAFACLSALVLITDRHGLQEPRRVEELQNRIASCLKEHVAAVAGEPQPASCLSRLLGKLPELRTLCTQGLQRIFYLKLEDLVPPPPIIDKIFMDTLPF
modifications: left off: large carriers; small tags and cut ends
notes: used as GFP fusion
B2: TR3/ΔDBD/Δ471-488: TR3/ΔDBD with eighteen amino acids from 471 to 488 in the DC1 region deleted (protein)
chain: MPCIQAQYGTPAPSPGPRDHLASDPLTPEFIKPTMDLASPEAAPAAPTALPSFSTFMDGYTGEFDTFLYQLPGTVQPCSSASSSASSTSSSSATSPASASFKFEDFQVYGCYPGPLSGPVDEALSSSGSDYYGSPCSAPSPSTPSFQPPQLSPWDGSFGHFSPSQTYLVLFSRSLHSLLVDVPAFACLSALVLITDRHGLQEPRRVEELQNRIASCLKEHVAAVAGEPQPASCLSRLLGKLPELRTLCTQGLQRIFYLKLEDLVPPPPIIDKIFMDTLPF
modifications: left off: large carriers; small tags and cut ends
notes: TR3/ΔDBD with eighteen amino acids from 471 to 488 in the DC1 region deleted

Key:
[1] = test system: peripheral blood lymphocytes (PBLs); experiment: Apoptosis of peripheral blood lymphocytes; assay type: cell-based, human; details: annexin V-staining, transfection
Experimental: Isolation and transfection of human peripheral blood lymphocytes (PBLs)—Leukocyte-enriched buffy coats from San Diego Blood Bank were diluted with 2 volumes of PBS, and PBLs were isolated by centrifuge on Ficoll-paque™ Plus (Amersham Pharmacia biotech). The mononuclear cells were cultured in RPMI containing 10% FBS and 20 μM Hepes. Freshly isolated cells (10^7 cells per transfection) were washed once with PBS containing 0.5% BSA and supernatant was completely discarded so that no residual PBS/BSA covers the pellet. The cells were resuspended in 100 μl of the human T Cell Nucleofector™ solution (Amexa biosystems) and very gently mixed with 1-4 μg DNA in 5 μl. The cell suspension was transferred into a cuvette supplied by Amexa biosystems and electroporated using U-14 program of Nucleofector™ device. The cells were removed from the cuvette quickly by adding 500 μl of the pre-warmed RPMI medium containing 10% FBS and 20 μM Hepes and transferred into 12 well plates containing 1.5 ml of pre-warmed culture medium.

Bcl-2 = target: T1, Bcl-2 (Homo sapiens, UniProt P10415); experiment: Co-IP assay of TR3 mutants with Bcl-2 in HEK293T cells; assay type: binding; details: GFP fusions co-transfected with Bcl-2 in HEK293T cells
T1 construct: expressed in transfected cells; host or cells: HEK293T
T1 sequence (P10415 whole entry, the tested form may be a part): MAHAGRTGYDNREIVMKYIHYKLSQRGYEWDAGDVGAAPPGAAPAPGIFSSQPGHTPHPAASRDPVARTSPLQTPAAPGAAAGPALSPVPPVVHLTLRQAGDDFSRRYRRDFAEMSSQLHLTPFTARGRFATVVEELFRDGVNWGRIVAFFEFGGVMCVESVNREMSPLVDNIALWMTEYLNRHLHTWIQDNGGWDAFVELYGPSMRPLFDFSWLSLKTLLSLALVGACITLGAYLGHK
Experimental: TR3/Bcl-2 interaction assays—Reporter gene assays using NurRE-tk-CAT in CV-1 cells, and GST pull-down assay were described previously (Li, et al. 2000 Science 289, 1159-1164). For the mammalian two-hybrid assays, CV-1 cells were co-transfected with pcDNA-Gal4TAD-TR3 or pcDNA-Gal4TAD-TR3/ΔDBD and pcDNA-Gal4DBD-Bcl-2/ΔTM along with a luciferase reporter gene driven by four copies of the Gal4-binding site. The cells were harvested and reporter gene activity was measured. For Co-IP assays, HEK293T cells were transiently transfected with various expression plasmids using a modified calcium phosphate precipitation method (Wu et al, 1997) in the presence of caspase inhibitors (zVAD-fmk) to prevent degradation of TR3 protein due to apoptosis. Cells were suspended in lysis buffer (50 mM Tris-HCl, PH7.4; 150 mM NaCl; 20 mM EDTA; 1% NP-40; 1 mM PMSF; 50 μg/ml Leupeptin; […]; 0.1 mM Na3VO4; and 1 mM DTT). Cells extracts were cleared by incubation with the Protein A/G plus Agarose beads (Santa Cruz) and then incubated with appropriate antibody and 30 μl of Protein A or G plus Agarose beads overnight at 4° C. Beads were then washed and boiled in Laemmli gel-loading solution before performing SDS-PAGE/immunoblotting using the following polyclonal or monoclonal antibodies: monoclonal mouse anti-GFP (Medical and Biological Laboratories), monoclonal mouse anti-HA (Roche Molecular Biochemicals), monoclonal mouse anti-FLAG (Sigma), monoclonal mouse anti-Myc (Santa Cruz), polyclonal rabbit anti-TR3 (Active Motif), or monoclonal mouse anti-Bcl-2 (Santa Cruz). Immunoreactive products were detected by chemiluminescence with an enhanced chemiluminescence system (ECL) (Amersham).
TR3/ΔDBD, which can constitutively reside on mitochondria, was also analyzed by co-immunoprecipitation (Co-IP) assay for its interaction with Bcl-2. GFP-TR3/ΔDBD was transfected into human embryonic kidney cell line 293T alone or together with a Bcl-2 expression vector. The expressed GFP-TR3/ΔDBD mutant protein as then precipitated by using either anti-Bcl-2 antibody or control IgG and detected by western blotting using anti-GFP antibody. The same membranes were also blotted with anti-Bcl-2 antibody to determine precipitation specificity and efficiency. Input represents 10% of total cell extract used in the precipitation assays.
Several TR3 mutants were analyzed to determine the domain of TR3 which interacts with Bcl-2. The TR3 mutants are schematically represented in FIG. 1. A Co-IP assay was performed, as described above. […] Cell extracts were prepared and incubated with anti-Bcl-2 antibody or control IgG for Co-IP assays. Lysates were immunoprecipitated by using either polyclonal rabbit anti-Bcl-2 antibody or control IgG. Cell lysates and immunoprecipitates were examined by immunoblotting using anti-GFP antibody. The same membranes were also blotted with anti-Bcl-2 antibody (Santa Cruz) to determine IP specificity and efficiency. […] This Co-IP was specific because Bcl-2 co-transfection was necessary. […] Thus, the DC1 region in the TR3 LBD is involved in the Bcl-2 interaction.
To further determine the interaction of DC1 with Bcl-2, a region of hydrophobic amino acids ([…]—SEQ ID NO: 1) was deleted from TR3/ΔDBD, and the resulting mutant (TR3/ΔDBD/Δ471-488) was analyzed for its interaction with Bcl-2. TR3/ΔDBD/[…], with eighteen amino acids from 471 to 488 in the DC1 region deleted from TR3/ΔDBD, TR3/ΔDBD/I483A (with Ile483 replaced with Ala) and TR3/ΔDBD/L487A (with Leu487 replaced with Ala) were analyzed for their interaction with Bcl-2 by in vivo Co-IP assay as described above.

293T cells = experiment: Cytochrome c release in 293T cells (confocal microscopy); assay type: cell-based, human
Experimental: (§1) Subcellular localization assays—Cells were seeded onto cover-slips in 6-well plates overnight, then transiently transfected with GFP-fusion expression plasmids. After 16 hours, cells were washed with PBS and fixed in 4% paraformaldehyde. For mitochondrial staining, cells were then incubated with anti-Hsp60 goat IgG (Santa Cruz, USA), followed by anti-goat IgG conjugated with Cy3 (Sigma). For cyt c staining, cells were incubated with monoclonal anti-cyt c IgG (PharMingen), followed by anti-mouse IgG conjugated with Cy5 (Amersham). Fluorescent images were collected and analyzed using a MRC-1024 MP laser-scanning confocal microscope (Bio-Rad). Subcellular fractionation assays were performed as described (Li, et al. 2000 Science 289:1159-1164). Briefly, cells (1×10^7 cells) suspended in 0.5 ml hypotonic buffer (5 mM Tris-HCl, pH 7.4, 5 mM KCl, 1.5 mM MgCl2, 0.1 mM EGTA, pH 8.0, and 1 mM DTT) were homogenized and cell extracts were centrifuged at 500×g for 5 min. The resulting supernatant was centrifuged at 10,000×g for 30 min at 4° C. to obtain the HM fraction. HM fraction was resuspended in 100 μl lysis buffer (10 mM Tris, pH 7.4, 150 mM NaCl, 1% Triton X-100, 5 mM EDTA, pH 8.0) for immunoblotting analysis.
The involvement of TR3/Bcl-2 interaction in TR3-induced cytochrome c release was also studied. […] Nor did transient expression of Bcl-2 alone.

MDA-MB-231 cells = experiment: GFP-TR3/ΔDBD localization and cytochrome c release in MDA-MB-231 cells; assay type: cell-based; details: MDA-MB-231, absence of any treatment
Experimental: as §1, with “The resulting supernatant was centrifuged at 10,000×g for 30 min at 4° C. to obtain the HM fraction. HM fraction was resuspended in 100 μl lysis buffer (10 mM Tris, pH 7.4, 150 mM NaCl, 1% Triton X-100, 5 mM EDTA, pH 8.0) for immunoblotting analysis.” left out
To study whether the TR3 nuclear-to-mitochondrial targeting pathway also occurs in breast cancer cells, a GFP-TR3 fusion construct was transfected into MDA-MB-231 cells. […] Next, GFP-TR3/ΔDBD was transiently transfected into ZR-75-1 or MDA-MB-231 cells, stained for mitochondria (Hsp60) and cytochrome c (Cyt c), and analyzed by confocal microscopy.

| Molecule | PBL apoptosis [1] | interaction with Bcl-2 (Co-IP) (Bcl-2) | cytochrome c release (293T cells; absence of Bcl-2 cotransfection) | cytochrome c release (293T cells; co-expression with Bcl-2/Y108K) | cytochrome c release (293T cells; co-transfection with Bcl-2/ΔTM) | TR3/ΔDBD and Bcl-2 colocalized cells displaying diffuse cyt c staining (293T cells; cotransfected with Bcl-2) | cytochrome c release (293T cells; cotransfection with Bcl-2) | GFP-TR3/ΔDBD subcellular localization (MDA-MB-231 cells) | cytochrome c release (MDA-MB-231 cells) |
| --- | --- | --- | --- | --- | --- | --- | --- | --- | --- |
| B1 | potently induced PBL apoptosis | co-precipitated with Bcl-2 | did not cause any release of cytochrome c | did not induce cyt c release | did not occur | Approximately 75% | significant release of cytochrome c | targeted to mitochondria | caused release of cytochrome c from the mitochondria |
| B2 | – | significantly impaired the interaction; also recorded: very weak interaction | – | – | – | – | – | – | – |
